Assays:
Roquin-1 coreROQ [1] = biological target: T1, Roquin-1 coreROQ (mouse, UniProt Q4VGL6 171-326); assay: EMSA; conditions: EMSA: 150 mM NaCl, 20 mM Tris pH 7.0, 2 mM TCEP, 1 mM MgCl2, 0.6 ug yeast tRNAPhe per 20 ul, 15 min, temperature not stated, gel in 1x TB
T1 sequence: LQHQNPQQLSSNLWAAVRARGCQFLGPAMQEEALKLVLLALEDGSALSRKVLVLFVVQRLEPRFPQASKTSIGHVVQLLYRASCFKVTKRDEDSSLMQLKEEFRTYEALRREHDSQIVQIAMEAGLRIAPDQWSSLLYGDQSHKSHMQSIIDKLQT

Roquin-1 extROQ [2] = biological target: T2, Roquin-1 extROQ (mouse, UniProt Q4VGL6 89-404); assay: EMSA; conditions: EMSA: 150 mM NaCl, 20 mM Tris pH 7.0, 2 mM TCEP, 1 mM MgCl2, 0.6 ug yeast tRNAPhe per 20 ul, 15 min, temperature not stated, gel in 1x TB
T2 sequence: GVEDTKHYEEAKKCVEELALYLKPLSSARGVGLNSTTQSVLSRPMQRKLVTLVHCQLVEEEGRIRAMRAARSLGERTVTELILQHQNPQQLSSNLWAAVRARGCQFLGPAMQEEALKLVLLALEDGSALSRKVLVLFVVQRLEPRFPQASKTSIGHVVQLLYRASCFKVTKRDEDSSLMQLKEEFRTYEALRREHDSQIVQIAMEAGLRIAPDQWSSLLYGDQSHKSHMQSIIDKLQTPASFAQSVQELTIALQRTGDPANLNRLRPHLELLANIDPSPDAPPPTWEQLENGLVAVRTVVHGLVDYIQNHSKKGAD

Roquin-1 N-term (mouse) = assay: EMSA; conditions: first binding event; EMSA: 150 mM NaCl, 20 mM Tris pH 7.0, 2 mM TCEP, 1 mM MgCl2, 0.6 ug yeast tRNAPhe per 20 ul, 15 min; temperature not stated; gel in 1x TB
[3] = test system: Roquin-1 N-term A-site mutant (Amut) (mouse); assay: EMSA; conditions: EMSA: 150 mM NaCl, 20 mM Tris pH 7.0, 2 mM TCEP, 1 mM MgCl2, 0.6 ug yeast tRNAPhe per 20 ul, 15 min; temperature not stated; gel in 1x TB
Roquin-1 coreROQ [4] = biological target: T1, Roquin-1 coreROQ; assay: EMSA; triplicate; EMSA: 150 mM NaCl, 20 mM Tris pH 7.0, 2 mM TCEP, 1 mM MgCl2, 0.6 ug yeast tRNAPhe per 20 ul, 15 min; temperature not stated; gel in 1x TB; conditions: protein: recombinant; tags: tag removed by TEV; label: 5' 32P (EMSA); hairpin, apical hexaloop
Roquin-1 extROQ [5] = biological target: T2, Roquin-1 extROQ; assay: as above; conditions: protein: recombinant; tags: tag removed by TEV; label: 5' 32P (EMSA); hairpin, apical hexaloop
Roquin-1 extROQ [6] = biological target: T2, Roquin-1 extROQ; assay: EMSA; single binding event; EMSA: 150 mM NaCl, 20 mM Tris pH 7.0, 2 mM TCEP, 1 mM MgCl2, 0.6 ug yeast tRNAPhe per 20 ul, 15 min; temperature not stated; gel in 1x TB; conditions: protein: recombinant, tags: tag removed by TEV, label: 5' 32P
[7] = biological target: the molecule itself; assay: SAXS; protein alone, concentration series 50, 100, 200, 300 uM; 150 mM NaCl, 20 mM Tris pH 7.0, 2 mM TCEP; 293 K; molecular weight by the Bayesian approach; monomer to dimer
Roquin-1 extROQ [8] = biological target: T2, Roquin-1 extROQ; assay: EMSA; two-step, comparable to WT ADE-CDE; EMSA: 150 mM NaCl, 20 mM Tris pH 7.0, 2 mM TCEP, 1 mM MgCl2, 0.6 ug yeast tRNAPhe per 20 ul, 15 min; temperature not stated; gel in 1x TB; conditions: protein: recombinant; tags: tag removed by TEV; label: 5' 32P; two hairpins
Roquin-1 extROQ [9] = biological target: T2, Roquin-1 extROQ; assay: EMSA; 2:1 stoichiometry; EMSA: 150 mM NaCl, 20 mM Tris pH 7.0, 2 mM TCEP, 1 mM MgCl2, 0.6 ug yeast tRNAPhe per 20 ul, 15 min; temperature not stated; gel in 1x TB; conditions: protein: recombinant; tags: tag removed by TEV; label: 5' 32P (EMSA)

Molecule: Ox40 tandem ADE-CDE
- Kd (Roquin-1 coreROQ [1]; transitions not resolved): 379 nM
- Kd (Roquin-1 extROQ [2]; first binding event): 59 nM
- Kd (Roquin-1 extROQ [2]; second binding event): 180 nM
- Kd (Roquin-1 N-term (mouse)): 78 nM
- Kd [3]: 593 nM

Molecule: Ox40 CDE
- Kd (Roquin-1 coreROQ [1]; triplicate): 460 nM
- Kd (Roquin-1 extROQ [2]; triplicate): 149 nM

Molecule: GCCUGCCAGUACCCUCCACACCGUUCUAGGUGCUGGGCUGGCUCUGGGC (structured_RNA) [Ox40 ADE]
- Kd (Roquin-1 coreROQ [4]): 232 ± 29 nM
- Kd (Roquin-1 extROQ [5]): 171 ± 17 nM

B1: Bulge-CDE (structured_RNA)
RNA: GGAUUUUAUGGGGCACGGACAACCCAUAUCCUGAUUUUCCUAUGUAUGCUAUGCAUACUAC
- Kd (Roquin-1 extROQ [6]): ~70.7 nM

B2: Roquin-1 amino-terminal part (N-term, residues 1-454) (domain or fragment, murine, UniProt Q4VGL6 1-454, looked up)
chain: MPVQAPQWTDFLSCPICTQTFDETIRKPISLGCGHTVCKMCLNKLHRKACPFDQTTINTDIELLPVNSALLQLVGAQIPEQQPITLCSGVEDTKHYEEAKKCVEELALYLKPLSSARGVGLNSTTQSVLSRPMQRKLVTLVHCQLVEEEGRIRAMRAARSLGERTVTELILQHQNPQQLSSNLWAAVRARGCQFLGPAMQEEALKLVLLALEDGSALSRKVLVLFVVQRLEPRFPQASKTSIGHVVQLLYRASCFKVTKRDEDSSLMQLKEEFRTYEALRREHDSQIVQIAMEAGLRIAPDQWSSLLYGDQSHKSHMQSIIDKLQTPASFAQSVQELTIALQRTGDPANLNRLRPHLELLANIDPSPDAPPPTWEQLENGLVAVRTVVHGLVDYIQNHSKKGADQQQPPQHSKYKTYMCRDMKQRGGCPRGASCTFAHSQEELEKFRKMNKRLV
notes: Roquin-1, murine, structured amino-terminal part with RING, ROQ and ZnF domains, residues 1-454 (theoretical MW 51.09 kDa); also called Roquin N-term; WT N-term; source: E. coli BL21 (DE3), expressed with 100 uM ZnCl2, purified (Ni-NTA, TEV cleavage, reverse Ni-NTA, SEC)
- binding result [7]: binds

B3: ADE-u-CDE (structured_RNA)
RNA: GCCUGCCAGUACCCUCCACACCGUUCUAGGUGCUGGGCUGGCUCUGGGCUGUAUGCUAUGCAUACUAC
- binding result (Roquin-1 extROQ [8]): binds

Molecule: GUAUUUAUGAUUUCCUAUGUAUGCUAUGCAUACUAC (structured_RNA) [extCDE]
- Kd (Roquin-1 extROQ [6]; 5' single strand plus hairpin): ~50 nM

B4: Ox40 full-length 3'UTR (structured_RNA)
RNA: GCAUUACUACAGGAGUGGAUUUUAUGGGGCACGGACAACCCAUAUCCUGAUGCCUGCCAGUACCCUCCACACCGUUCUAGGUGCUGGGCUGGCUCUGGGCUUUCCUAUGUAUGCUAUGCAUACUACCUGCCUGGUGGUGCUCCUAAUAAACAUGCUA
- Kd (Roquin-1 extROQ [9]): 63 ± 9 nM
